Measured values from publication PMC8011978.

Columns and labels:
[1] = biological target: LAdV-2 penton base protein (lizard atadenovirus LAdV-2); experiment: cryo-EM structure
[2] = biological target: LAdV-2 protein LH3 (lizard atadenovirus LAdV-2); experiment: cryo-EM structure

Substance | stoichiometry N [1] | stoichiometry N [2]
LAdV-2 penton base protein (natural protein) | 5 | –
LAdV-2 protein LH3 (natural protein) | – | 3
